T1: human GFRAL expressed on cells (human, UniProt Q6UXV0 20-394)
T1 sequence: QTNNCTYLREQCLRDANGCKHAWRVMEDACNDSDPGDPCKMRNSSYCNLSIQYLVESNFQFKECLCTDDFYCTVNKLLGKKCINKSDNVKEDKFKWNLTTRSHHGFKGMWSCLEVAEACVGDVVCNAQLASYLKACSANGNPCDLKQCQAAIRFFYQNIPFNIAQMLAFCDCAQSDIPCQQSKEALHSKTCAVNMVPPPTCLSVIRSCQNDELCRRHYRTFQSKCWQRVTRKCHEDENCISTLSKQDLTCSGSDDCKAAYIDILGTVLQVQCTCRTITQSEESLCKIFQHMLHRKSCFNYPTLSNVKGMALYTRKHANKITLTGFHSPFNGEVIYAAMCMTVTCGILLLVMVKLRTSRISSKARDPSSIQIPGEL

T2: human GFRAL (analyte in Biacore assays) (human, UniProt Q6UXV0 19-351, limits assumed)
T2 construct: injected in solution over captured antibody; also called hGFRAL
T2 sequence: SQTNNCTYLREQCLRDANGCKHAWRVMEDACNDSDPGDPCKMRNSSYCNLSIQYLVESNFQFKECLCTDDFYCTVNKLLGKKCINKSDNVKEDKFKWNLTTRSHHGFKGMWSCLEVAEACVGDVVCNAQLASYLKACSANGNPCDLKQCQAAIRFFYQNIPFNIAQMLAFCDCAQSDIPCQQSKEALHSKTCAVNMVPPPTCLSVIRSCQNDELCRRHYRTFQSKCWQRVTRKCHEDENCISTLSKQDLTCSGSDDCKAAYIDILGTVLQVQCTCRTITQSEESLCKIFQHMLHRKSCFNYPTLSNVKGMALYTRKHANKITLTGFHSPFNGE

T3: mouse GFRAL (analyte in Biacore assays) (mouse, UniProt Q6SJE0 20-349, limits assumed)
T3 construct: injected in solution over captured antibody
T3 sequence: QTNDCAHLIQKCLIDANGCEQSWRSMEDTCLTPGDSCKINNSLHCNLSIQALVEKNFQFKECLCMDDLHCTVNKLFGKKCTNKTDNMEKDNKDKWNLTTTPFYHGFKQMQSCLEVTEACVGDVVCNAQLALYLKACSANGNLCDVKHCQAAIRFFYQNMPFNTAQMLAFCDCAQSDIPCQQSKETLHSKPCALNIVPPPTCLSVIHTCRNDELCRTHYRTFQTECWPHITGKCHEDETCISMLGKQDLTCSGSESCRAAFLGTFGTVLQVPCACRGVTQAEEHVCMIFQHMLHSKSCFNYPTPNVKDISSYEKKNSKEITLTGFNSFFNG

B1: antibody designated 6G9 (antibody, V domains shown)
VH: QVQLHQPGAELVKPGASVKLSCKTSGYTFTSYWMQWVKQRPGQGLEWIGEIDPSDSYTNYNQKFKGKATLTVDTSSTTAYMQLSSLTSEDSAVYYCARPLDRSAYYFDYWGQGTTLTVSS
VL: DIVLTQSPASLAVSLGQRATISCRASESVDFSGNSFMHWYQQKPGQPPKLLIYRASNLDSGIPARFSGVGSRTDFTLTINPVEADDVATYYCQQSNEDPYTFGGGTKLEIE
notes: mouse hybridoma monoclonal
B2: antibody designated 6N16 (antibody, V domains shown)
VH: QVQLQQSGSELVKPGTSMKLSCKASGYTFTSYNINWVRLRPEQGLEWIGWIFPGDDSIKYNENFRGKATLTTDKSSSTAYMHLSRLTSDDSAVYFCARSGIFYGNNFAYWGQGTLVTVSA
VL: DVVMTQAPLILSVTIGQPASISCKSSQSLLDGDGETYLSWLLQRPGQSPKRLIYLVSKLDSGVPDRFTGSGSGTDFTLKISRVEAEDLGVYYCCQSTHFPLTFGAGTKLELK
notes: mouse hybridoma monoclonal
B3: antibody designated 2B11 (antibody, V domains shown)
VH: DVQLQESGPGLVKPSQSLSLTCSVTGYSITSGYYWNWIRQFPGNKLEWMGHIANDGSNYYNPFLKHRVSITRDTSKNQFFLKLNSVTIQDTATYYCARGGSYFDYVDYWGQGTTLTVSS
VL: DIQMTQTTSSLSASLGDRVTINCRASQDISNYLNWYQQKPDGTVKLLIYYTSRLHSGVPSRFSGSGSGTDYSLTITNLEQEDIATYFCQQGNTLPFTFGSGTKLEIK
notes: mouse hybridoma monoclonal
B4: antibody designated 2I23 (antibody, V domains shown)
VH: QAQLQQSGAELVKPGASVKLSCKASGYSFTSYNIDWVRQRPEQGLEWIGWIFPGDGSTKYNEKFKGQATLTTDKSSSTTYIHLSRLTSEDSAVYFCARSGIYYGSHFVYWGQGTLVTVSA
VL: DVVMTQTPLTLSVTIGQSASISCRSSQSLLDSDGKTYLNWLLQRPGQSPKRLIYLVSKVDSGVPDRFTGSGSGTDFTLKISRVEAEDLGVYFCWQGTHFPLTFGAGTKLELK
notes: mouse hybridoma monoclonal
B5: antibody designated 1B3 (antibody, V domains shown)
VH: QVHLQQPGAELVKPGASVKLSCKASGFTFTGYNINWVRLRPEQGLEWIGWIFPGDDNAKYNEKFKGKATLTTDKSSNTAYMQLSRLTSEDSAVYFCARTPVLSNYFDYWGQGTTLTVSS
VL: DIQMTQSPSSLSASLGGKVTITCKASQDISKYISWYQHKPGKSPRLLIHYTSTLQPGIPSRFSGSGSGRDYSFSISNLEPEDIATYYCLQYDNLYTFGGGTKLEIK
notes: mouse hybridoma monoclonal
B6: antibody designated 8C10 (antibody, V domains shown)
VH: QVQLQQSGVELARPGAAVKLSCKASGYTFANYGLTWVKQRTGQGLEWIGEIYPGSGHTHYNEDFKGKATLTADRSSSTAYMELRSLTSEDSAVYFCARRIQLLLPVGGFVYWGQGTLVTVSA
VL: DFVLTQSPATLSVTPGDSVSLSCRASQSISNNLHWYQQKSHESPRLLIKYASQSISGIPSRFSGSGSGTDFTLSINSVETEDFGVYFCQQSNSWPHTFGGGTKLEIK
notes: mouse hybridoma monoclonal
B7: antibody designated P1H8 (antibody, V domains shown)
VH: EVQLQQSGPELVKPGASVKISCKASGYTFTDYYMNWVKQSHGKSLEWIGDINPNNGGTTYNQKFKGKATLTVDKSSSTAYMELRSLTSEDSAVYYCARQGPWYFDVWGTGTTVTVSS
VL: DVLMTQTPLSLPVSLGDQASISCRSSQTIVHSNGYTYLEWYLQKPGQSPKLLIYKVSNRFSGVPDRFSGSGSGTDFTLKISRVEAEDLGVYYCFQGSHVPWTFGGGTKLEIK
notes: mouse hybridoma monoclonal
B8: antibody designated P1B6 (antibody, V domains shown)
VH: EVQLQQSGPELVKPGASVKMSCKASGYTFTDYYMNWVKQTHGKSLEWIGDINPNNGGPIYNQKFKGKATLTVDKSSSTAYMELRSLTSEDSAVYYCARSDSAWFTYWGQGTLVTVSA
VL: QIVLTQSPAIMSASPGEKVTMTCSASSSVSYMYWYQQKPGSSPRLLIYDTSNLASGVPVRFSGSGSGTFYSITISRMEAEDAATYYCQQWNSYPPTFGGGTKLEIK
notes: mouse hybridoma monoclonal
B9: antibody designated 1A3 (antibody, V domains shown)
VH: EVQLQQSGPELVKPGASVKISCKASGFTFTDYYMNWVKQSHGKSLEWIGDIIPNNGVTSYNQKFKGKATLTVDKSSSTAYMELRSLTSEDSAVYYCAREWLLRGMDYWGQGTSVTVSS
VL: DIVMTQAAFSNPVTLGTSASISCRSSKSLLHSNGITYLYWYLQKPGQSPQLLIYQMSNLASGVPDRFSSSGSGTDFTLRISRVEAEDVGVYYCAQHLELTWTFGGGTKLEIK
notes: mouse hybridoma monoclonal
B10: antibody designated P8G4 (antibody, V domains shown)
VH: QVQLKQSGPGLVQPSQSLSITCTVSGFSLTSYGVHWVRQSPGKGLDWLGVLWSGGSTDYNAAFISRLSISKDNSKSQVFFKMNSLQADDTAIYYCARNFGDYWGQGTSVTVSS
VL: QIVLTQSPAIMSASPGEKVTMTCSASSRVSYMHWYQQKSGTSPKRWIYDTSKLASGVPARFSGSGSGTSYSLTISSMEAEDAATYYCQQWNNNPPTFGAGTTLELK
notes: mouse hybridoma monoclonal
B11: humanized anti-GFRAL antibody HC-375g/LC-375a (antibody, IgG1, V domains shown)
VH: QVQLVQSGAEVKKPGSSVKVSCKASGYTFTDYYINWVRQAPGQGLEWIARIYPGNGNTYHNEKFKGRATLTADKSTSTAYMELSSLRSEDTAVYYCAREGLYYDYDRYFDYWGQGTLVTVSS
VL: DIVMTQSPDSLAVSLGERATINCRASESVDTYGNSFMHWYQQKPGQPPKLLIYLASNLESGVPDRFSGSGSGTDFTLTISSLQAEDVAVYYCHQNNEDPPAFGGGTKVEIK
notes: humanized 5F12

For the first experiment, the target named is T1, human GFRAL expressed on cells. The experiment in a line: cell-based or functional assay.
Take B1: the “IC50, ELK1-luciferase reporter (hGFRAL/hRET)” value (“IC50 … (hGFRAL/hRET)” for short) was 2.65 nM.

Consider B2, for which the “IC50 … (hGFRAL/hRET)” value turned out to be 1.62 nM.

Regarding B3, the “IC50 … (hGFRAL/hRET)” value was 7.9 nM.

On to B4, for which the “IC50 … (hGFRAL/hRET)” value was determined as 7.18 nM.

As for B5, the “IC50 … (hGFRAL/hRET)” value came to 4.14 nM.

As for B6, the “IC50 … (hGFRAL/hRET)” value was determined as 1.79 nM.

The target is the same in the next experiment. Nature of the experiment: cell-based or functional assay. This is another data set of the same source.
As to B1, the “IC50, ERK phosphorylation in U2OS hGFRAL/hRET cells” value (from here on “IC50 … in U2OS hGFRAL/hRET cells”) is 0.17 nM.

As to B2, the “IC50 … in U2OS hGFRAL/hRET cells” value worked out at 0.27 nM.

As to B3, the “IC50 … in U2OS hGFRAL/hRET cells” value was 0.46 nM.

Regarding B5, the “IC50 … in U2OS hGFRAL/hRET cells” value is 0.57 nM.

Consider B6, for which the “IC50 … in U2OS hGFRAL/hRET cells” value amounted to 0.28 nM.

A further experiment concerns the target T2, human GFRAL (analyte in Biacore assays). The experiment in a line: Biacore SPR, antibody captured, GFRAL injected. The procedure: (§1) In addition, the binding affinity of antibodies to human and mouse GFRAL were measured. For example, antibodies were rank ordered based on their binding affinity to human GFRAL and mouse GFRAL by low resolution KD measurement by Biacore. Briefly, an anti-mouse Fc antibody (Sigma-Aldrich, St. Louis, Mo.) was immobilized on all four flow cells of a CM5 chip using amine coupling reagents (GE Healthcare LifeSciences, Piscataway, N.J.). Purified antibodies were captured (˜100 RUs) on flow cells 2, 3 and 4 using flow cell 1 as a reference. This was followed by injection of human or mouse GFRAL (25 nM in PBS-P buffer) at a flow rate of 70 μL/m in and monitoring the binding kinetics at 25° C.
(§2) Binding affinity measurements were also made in additional Biacore based assays. For example, equilibrium dissociation constant (KD) measurements were carried out with purified antibodies to evaluate their binding to human GFRAL or mouse GFRAL. As mentioned above, anti-mouse Fc antibody (Sigma-Aldrich, St. Louis, Mo.) was immobilized on all four flow cells of a CM5 chip using amine coupling reagents (GE Healthcare LifeSciences, Piscataway, N.J.). Purified antibodies were captured (˜100 RUs) on flow cells 2, 3 and 4 using flow cell 1 as a reference. This was followed by injection of human or mouse GFRAL in PBS-P buffer) at a flow rate of 70 μL/min and the binding kinetics were evaluated at 25° C.
By Kd is commonly meant the constant that tells how readily two partners part at equilibrium. By koff is commonly meant the rate constant with which the complex falls apart. For B7, the Kd amounted to 0.21 nM and the koff was found to be 8.99e-05 s⁻¹.

For the molecule B8, binding was put at a Kd of 0.14 nM and the koff is 9.72e-05 s⁻¹.

In turn, B1 showed a Kd below 0.1 nM.

Consider B9, for which the affinity, expressed as Kd, was 0.11 nM and the koff was 7.57e-05 s⁻¹.

B2 returned a Kd of 0.16 nM and a koff of 9.93e-05 s⁻¹.

Regarding B10, the Kd turned out to be 0.21 nM and the off-rate (koff) came to 0.000276 s⁻¹.

In turn, B3 came in with a Kd of 0.1 nM and a koff of 8.45e-05 s⁻¹.

B4 returned a Kd of 0.23 nM and a koff of 6.77e-05 s⁻¹.

Consider B5, for which the Kd was below 0.1 nM.

The molecule B6 displayed a Kd below 0.1 nM and a koff of 7.2e-05 s⁻¹.

For the next experiment, the target named is T3, mouse GFRAL (analyte in Biacore assays). The experiment in a line: Biacore SPR, antibody captured, GFRAL injected. The protocol:
as §1, §2
(In general: SPR reads the build-up and loss of mass on a sensor chip optically.)
On to B7, for which the binding result is on record as “no binding”.

As for B8, the binding result was “no binding”.

For the molecule B1, the binding result is reported as “no binding”.

Consider B9, for which the binding result is “no binding”.

In the case of B2, the binding result is on record as “no binding”.

As for B10, the binding result is listed as “no binding”.

As to B3, binding was characterised by a dissociation constant (Kd) of 3.7 nM and the koff is 0.00144 s⁻¹.

Take B4: the binding result was “no binding”.

Regarding B5, the Kd came out at 4.4 nM and the koff is 0.00107 s⁻¹.

A further experiment deals with T2, human GFRAL (analyte in Biacore assays). Nature of the experiment: Biacore SPR, antibody captured, human GFRAL injected. The protocol: Exemplary humanized anti-GFRAL antibodies identified in Example 6 were assayed for their binding affinity to human GFRAL. Binding affinity measurements were made in Biacore based assays. For example, equilibrium dissociation constant (KD) measurements were carried out with purified antibodies to evaluate their binding to human GFRAL. Using methods described in Example II, anti-mouse Fc antibody (Sigma-Aldrich, St. Louis, Mo.) was immobilized on all four flow cells of a CM5 chip using amine coupling reagents (GE Healthcare LifeSciences, Piscataway, N.J.). Purified humanized anti-GFRAL antibodies were captured (˜100 RUs) on flow cells 2, 3 and 4 using flow cell 1 as a reference. This was followed by injection of human GFRAL in PBS-P buffer) at a flow rate of 70 μL/min and the binding kinetics were evaluated at 25° C.
B11 returned a Kd of 0.028 nM. That is a picomolar value.
